This series can be described thus: label from the status in PepcDB records.
“MDFLTKLAIAFLIGIMVGVEREHRGLEHEIFAGVRSYSITCITGMLVALASESIGTGFVYVSTLFFAAMCSIITYSKIFLFKRIGVTSPITLFFIFVMGVLVGYDYGLFAIVSSIVVAFLLIQKQPLHQFAGNLTKEELYNAIQFLAVAFILYPVMPEKQFFGLLNLRYAILIVILVSLISFSSYVLLRKFGTKRGLYYSGFLGGFINSEATTGALAGLSKKAEEMAAPVITGILLCNISMLIRNLVLAFIVDPTGRTTMLMLLPQLVLIIVSIGMAYRHSKKVCPIGGGELKIQSPFSLGQAFKFGIAFTLILVIGNFAYNAAGTTGIYLTALGALVSSSGVIVSVTLLAVSGNISYEVAANTAVIASLVSTVNKILLSKISGSSSLFSLAIKDFGIIAATGTLALVILNFL”: the protein production result is “failed”.

With “LERMVQTRRGLEIIIDAASTLYDFKSMQRLAEGVLTQLASLLNVDCAGILVLRDAGDELAVLAGSGCYSRFIGTTGHSNSLDPDLRQMVEEAFRRRKHEFADHRTVLYIRTGSGREVVVLLQAERELSDTDRSLVEIFGSRLSIAFDNVILYRQLHEANTQ”, the protein production result was “failed”. Turning to “MATKSSDSSHKQSPPSFRKSVEIKATHDQFFVWREFLWGGIAGAFGEGMMHPVDTLKTRLQSQIIMNATQRQKSILQMLRTVWVGDGLKGFYRGIAPGVTGSLATGATYFGFIESTKKWIEESHPSLAGHWAHFIAGAVGDTLGSFIYVPCEVIKQRMQIQGTSSSWSSYISRNSVPVQPRGDMYGYYTGMFQAGCSIWKEQGPKGLYAGYWSTLARDVPFAGLMVVFYEGLKDLTDQGKKKFPQYGVNSSIEGLVLGGLAGGLSAYLTTPLDVVKTRLQVQGSTIKYASYKGWLDAVGQIWRKEGPQGFFRGSVPRVMWYLPASALTFMAVEFLRDNFREKSNNNNNVVSNLSIERKTSSTSVHEG”, the protein production result is “failed”. For the sequence “MRIPYIDCGMNSLFFITLLGSFFTVAQANSSSDLLELPATNSALAIKSVLMAMTPNNDAILVVGERGHIINWQNDDNWQQLQSPVSVAITDVTILSDGSKVAVGHDGVILKVDSNSTTWRKVFTGKEITQFQIAQLKQQYQSLEQVILQTQDEDELEELTYQLDDLTFAIEDNQLELKSGPNKPLLSVTSTSNDTLFASGAYGILLSSKDKGETWQLVSNHLDNPDRFHLNTVIATADDQLYIVGENGMGFHSTDVGQTWSVMTLPYSGSLFGILANTVKTHTISTDDINSTKNKTQLVAFGLQGNIMVSLDGGGNWQHIKLPRSTSLLGGNFSKQGKVYLVGHGGVIVSFYPENLSTLTIKKHPSGAALSSVLVKDNSLILAGQFGISQWPIEAEE”, the protein production result was “failed”.

Consider “MDLGPEQIFGAPCRKCKEKCEGFELHFWKKTCRNCKCGQEEHGILLSTEEDRKVGRIIEDGKDTNQIAKLKADEIPMDKTSETVLNKPEPEKKDDFTKTVSYEWVPSVQNKALTRQYMQMLPKEKQPVSGSEGAQYRKKQLAKQLPAHDQDPNKCHELSRKEAKEMRQFVKKYKNEALGVGDVRLPSEMNVQHYKGHNPATDRNTPTAVDFKDTSMEPKKPQYSCYSCKHAVKEGNPAIFAERAGYDKLWHPACFICTICGEILVDMIYFWKNGKLYCGRHYCDSEKPRCAGCDELIFSNEYTQAENKNWHLIHFCCFHCHNVLAGKIYVMVGSKPVCKSCYMKIHAVVCQGCHNAIDPEEQRVIYQNFSWHASTACFLCSCCSKCLLGKKFIRVEGMIFCSIECKNMMS”, for which the protein production result is on record as “failed”. In the case of “MDLLQFLIDKNNVFIVAVAVVSGIMLMLPALRKGRAGAAVGTSEAIQMVNQRQAVWVDVRPTEQFQAGHIAQARSLPAADLEKKAGALPKNKPLIVVCEQGRDAARIAARLRSQGFAEVSVLEGGMRAWFAAGLPVTQKG”, the protein production entry is on record as “failed”.

With “GLNHMTARYLREEHHMFRAAFRKFLEKEAYPHYNDWEKRGIIPRSFWAKMGENGFLCPWVDEKYGGLNADFAYSVVINEELEKVGSSLVGIGLHNDIVTPYIASYGTEEQKQKWLPKCVTGELITAIAMTEPGAGSDLANISTTAVKDGDYYIVNGQKTFITNGIHADLIVVACKTDPQAKPPHRGISLLVVERDTPGFTRGRKLEKVGLHAQDTAELFFQDAKVPAYNLLGEEGKGFYYLMEKLQQERLVVAIAAQTAAEVMFSLTKQYVKQRTAFGKRVSEFQTVQFRLAEMATEIALGRTFVDRVIEEHMAGKQIVTEVSMAKWWITEMAKRVAAEAMQLHGGYGYMEEYEIARRYRDIPVSAIYAGTNEMMKTIIARQLDL”, the protein production result is recorded as “not failed”. The same measure for “MNVMQENQIKLIEHIKQAVVQAVGLEETEVPEILLEVPKDKKHGDYSTNIAMQLARVAKKAPRQIAESIVPELKKDTKLIKEVEIAGPGFINFYLDNAYLTDLVPVILTEDKKYG”: “not failed”; for “MSGEGDTTLKAICYKPGSLQLLDQRKLPLETIYLEIRDASDGWSAIQEMVVRGAPAIAIAAALSLAVEVFNFHGFDGSASDAVAFLENKLDYLVSSRPTAVNLADAALKLKHVIAKALATATEAKSIFKAYIEASEDMLEDDVVSNKAIGNFGLSLLRQQAKNPDKLSVLTHCNTGSLATAGYGTALGVIRALHTQGILERAYCTETRPFNQGSRLTAFELVHEKIPATLIADSAAAALMKDGRVDGVIVGADRVASNGDTANKIGTYSLALCAKHHGIPFYVAAPLTSVDLSLSSGKEIVIEERSPKELMHTHGGLGERIAAPGISVWNPAFDMTPAELIAGIITEKGVITKNGNDTFDISSFAKKITGNSSR”: “failed”; for “MLNGLWLGFFLVAAVSAMAQWLVGGNAGIFAAMVESIFAMAKLSVEVMVLLFGTLTLWLGFLKIAEKAGIVEWLAKVLGPLFARLMPEVPPGHPALGLITMNFAANGLGLDNAATPIGLKAMRALQELNPGSTTASNAQILFLVLNASSLTLLPVTVFMYRAQQGAPDPTMVFLPILLATSVSTLVGLLSVAVMQRLRLWDPVVLAYFIPGALLLGGFMAFLGTLSAAALASLSSLLGNLTLFGVIMLFLVVGALKRVKVYEAFVEGATEGFDVAKSLLPYLVAMLVAVGVLRASGALELALDGIRHAVSWMGLDTRFVEGLPTALVKPFSGSAARAMLIETMQTQGVDSFPALVAATIQGSTETTFYVLAVYFGAVGIQRVRHAVGCALLAEFSGVVAAIFVCYWFFA”: “failed”. As for “MQRLSTEFSMNHPVRRSPIASFFVGLWDVMNFTRRLIFNLVFFGFLFMLLLVFVVALARGDGTKPLAERTTLVINPEGTLVEQFSADPVSRSLAKAVGDKSAQEVQLRDLVRVIEAAGKDRKIERVLLNLDKFQPSGFASQREVAAALQKLRASGKQIVAFSESMSQGQYLLAAQANEVYLDPMGSVLLEGLGRYRQYFREGLQDKLGVDVHLFRVGEYKSAAEPYILDAASADAKEADLFWMNDVWQRYLADVVTARKLSPAQLTAGIDTLPEGVAAAGGDLAKFALQQKLVDGLKTREEVDALLVKRGVADSDAESGFRNIGFNDYLSQLQAQDSPMDSRPQVAVVVATGEISGGEQPAGRIGGESTAALLRQARDDEKVKAVVLRVDSPGGEVFASEQIRREVVALKQAGKPVVVSMGDLAASGGYWISMNADRIYADPSTISGSIGIFGMVPNLTRALDKIGVHTDGVGTTRFAGAFDITRPLDPAAGQVIQAVINKGYADFTGKVAQARHQSVDAIDKVARGRVWSGAQAKERGLVDAFGGMSEAVADAADRAKLSRGKFRVRYVEKPATPFSQFMNGFAGSRMGAWMLSDSGMARALVARALPEVDTQLRFVESAVHDSKAGGTPVKSLAYCFCGF”, the protein production result is recorded as “failed”. The same measure for “MSGQPTAVDCLESSGSTVEDVQETPASREKSYGLPVRKGENSLESPAEQAAKDVEIEELTHSEAIAATGSTRKQCPYGGKAPDEPGKLADESEDRKGENTKAIASSPVLVAVDSDSSVELIESPVKFSSANESEKDPPKPDAVNEAAAKE”: “failed”. For the sequence “MKVKSISRFFSMKKVTLSFVTLFIGVGTIGSYNQYADASMKTQQTHVTKSSPTQKTTSNFKRSVKDTSVKSRATSIKRATSTKQAISPKTSSTKKTTIAKKSTTVNKTRTTTKTQPTIRKSSTTSTRSKTMPTSVKRTTSHKATTVSPTSKAKISTKTQQSTKSHTTSVKKNTTQLSKTKSPSTSTKSKTVQSSTTKAQPTLSTQVSTTTKAKQFSTPTTSKTDSSKSLVSLASTERKIDKYQSMTQLEKETTEGVDWRKDTKNTGNQVLIVAPHGGSIEQGTTELTKALADKGNYDYYSFEGIRPKNNSELHVTSTHYDDPTLNQMIKNRTATISIHGASGSEEIIYLGGPRSDLRNAIEKQLVARGFTVKVPPEYLGGQNNKNFINREDNNTGVQLELTTALRKAFFKNGDTSTKNRTNKENWTPTMEEFINALYEGINQTYSLEHHHHHH”, the protein production result is reported as “failed”.

Turning to “MLIERIYDEDLAQASYFIGCQAHNTAVVVDPRRDIAVYLDMAKKNGMEIVGVTETHIHADYLSGTRELAAATNATMYVSGEGGADWQYEFDAERICDGSEIRLGNLVLTAVHTPGHTPEHLSFLLKDGAFADEPGFMLTGDFVFAGDLGRPDLLDEAAGGVDTRFEGARQMFKSLKEKFLTLPDHIQIFPGHGSGSACGKALGSVPSTTLGYERQFAWWGKYLEADDEQGFIDELLEGQPDAPAYFGRMKRQNRQGPAIMGARELLPQLEASDLHDVIVVDTRSADEVHQGTVAGAVNIPAGNSMAKFGSWTVDPEKDSRALVLLAASQIGAMEMWDHMVRVGIDNVAGFITNFDGVDLVAPQTVSPDQLDELEYDLLLDVRNRSEVEEGYIPGALHINGASVLWNLEKLPRDGKIVSYCKSGTRSSIAASTLRNAGFDVVELQGSYDNWVRHNAQLEHHHHHH”, the protein production result was “not failed”. The same measure for “MINAISPFQVQNTQNTQNATNQVNNSQKTDSSNQTSFSELLKNSISSLNESQVASDNMTNALAAGKDVNLDEVMIAAQKASISLTAATEFRNKAVEAYQEIMRMQM”: “not failed”; for “MLTLLPTPIGNLQDITLRSLEVLKVAEIILCEDTRVSKRLLSLLSQKELLPPKEYRYISLHSHNEEATLQNLPPDFFTQEVVYMSDAGMPCISDPGAALVRYAQERGISYTVLPGA”: “failed”. With “MKEDKKLVKQARQNFRSNLKSARMHYRKEVRTLKQTVPKKGRFRKSAKNSLFQEKKTELKGNLLSSQKEAEEKFIKEITYVSPRLLKAKEIKNYRLPQAQERLRTARKHLSEVKLSEKQQVVNPKFTFQKENPSLKSRFQFHQEKSFDRLSAEKDVSSAKREVKQLKKVQKTKKNSTKVKAGLGLAASESLDLIAQEDDLDGLRTMKDTSLKARRYGRFTYQAGKVAVKSGQTGVRFTKTKFSHGKERFQNFKKGKGFTRQKPLKPRRRYQTFLNHVRKQSVAGFKGIVQAIKGSMTFFSVLAGNPLTWIVSGILLILLLMMSFFMSVSGSSVIQQDEIELSKSYTHMTWEDAEHTRTNDKGITFYTKIDEVMVYMNHQYQDYKLDDFIETSGTTYKEFLSQLWSDLNGGDSIKSMSDLYKEPAYKLSDEDQEELNELTEEGNYLALQELDNPFQGQTDEDSLSMTYRYGYEVIDEKPTLHHHIILEAKEGQVIVAPMDGKVSLDGENVVLTSGKGVNKTKLTLFGIHSGRVSENQQVLAGDIIGQTKDGTGLKVTYQKVDDDTDKLVYVNPAFYFPKVIQVQTTILPTIGQFGGDEFERAKAIYDYLKSKGATNQAIAAILGNWSVESSINPKRAEGDYLSPPVGATDSSWDDEGWLTLNGPTIYNGRYPNILKRGLGLGQWTDTADGSRRHTLLLEYAKGKHQKWYDLGLQLDFMLYGDSPYYTNWLKDFFKNSGSPASLAQLFLIYWEGNSGDKLLERQTRASEWYYQIEKGFSQPNGGTAQSDPKALEAVREDLFENSIPGGGDGMGYAYGQCTWGVAARINQLGLKLKGKNGEKIPIISTMGNGQDWVRTAASLGGETGTSPQEGAILSFAGGGHGTPTEYGHVAFVEKVYPDGSFLISETNYNGNPNYTFRKLSGVDSSLSFAYTTK” the entry was “failed”; with “SSQRYMQILQIMPEAIFIHDNGKCNFINDKAIKLLEVKDVKDIIGKNIVDFIHEDYKELAQARIDKTMKTGMPCDFIEERLVTAMGKKIIIEAATTTFSHNNGTFITIIRDMT”, “failed”.

For the origin of these results see a protein production outcome set (Wang et al. 2014).
